# Reference: the RNAGym collection of RNA variant scans (doi:10.1073/pnas.2313332121)
# B1: TPR t1 (parent)
# chain: GACCAAUCUGCCCUCAGAGCUCGAGAACAUCUUCGGAUGCAGAGGAGGCAGGCUUCGGUGGCGCGAUAGCGCCAACGUCCUCAACCUCCAAUGCAUCCCACCACAUGAUGAUGCCUGAAGAGCCUUGGUUUUUUG
# Variants of: B1
# Assay: polymerase ribozyme fitness, log enrichment relative to wild type (log ratio); higher = more active; in vitro selection for triplet polymerase activity
# Summary of the method: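 Fitness measures genotype enrichment against wild-type enrichment on a logarithmic scale, with inverse-variance-weighted averaging of replicates. The logarithm is base 2, and genotypes were kept only with ≥10 input reads and ≥1 read per output in Illumina sequencing. The sequenced libraries came from one triplicate in vitro selection round, including frozen incubation at −7 °C, of PCR-built, transcribed mutant libraries of each subunit of a heterodimeric triplet polymerase ribozyme.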
row,Variant,polymerase ribozyme fitness (log ratio)
1,A37U G60C C62U,-2.01
2,G39C C70U U112C,1.16
3,C40A C82U,-1.77
4,U38G A83G,-1.98
5,C40G G58C G60U C101U U126C,-2.69
6,C40G G77A C97U,-4.09
7,C40A G44C C72G G127A,-4.18
8,C40G C72G C73A U78G,-4.57
9,G39A G44A G77A,-2.46
10,C40G G51A C56A C72A A121U,-3.83
11,C40A G52A G60A U81C A95U,-3.45
12,A37G G42A C79G C104U,-4.86
13,G39A C72G,-0.976
14,G39C C49G G77U C94A C98G C102U C123A U131A,-5.44
15,C40A C82A U92A C102A C124U,-4.16
16,A37U G69U U125C,-3.4
17,C40G G44C C72A U78G C94G A121C G128U,-6.15
18,G39A G71A C82U U87C U132C,-1.47
19,C40G A43G C114U,-4.36
20,C40G G69A C79U,-2.89
21,U38C C53G U59A U106A,-0.127

row,Variant,polymerase ribozyme fitness (log ratio)
1,A37U A46U C64U C115A,-3.03
2,C40A G48C G61A,-0.933
3,C40A G71A G113A,-3.05
4,C40A C86U,-1.9
5,C40A C56U U87A,-1.61
6,G39C G69C,-2.22
7,C40A A41U G57C C104U C114U,-3.33
8,G39A C49A G122A C123G,0.869
9,U38G U78G,-0.583
10,G39C G127C,-1.46
11,C40A G63U C79A U130G,-4.83
12,G39U A41U C104U C123A,-2.95
13,G39U U87C,-0.0295
14,U38C G71C C82A A83U A90G,-2.39
15,A37U C88U C101G C115G,-3.98
16,G39C C56G,-1.53
17,A37U A100C A103U,-5.74
18,U38C A43U,-2.21
19,G39U C76A U125G,-2.02
20,C40G G61C A118U,-1.55
21,U38G U55G A121C,1.28

row,Variant,polymerase ribozyme fitness (log ratio)
1,C40A G69C A105G,-6.71
2,C40G G110A,-1.53
3,C40G G57A A84C U112A G122A,-3.59
4,U38G C49A C73U C86U U109G U126A,-5.53
5,G39A C72A A91U C94A,-2.84
6,G39U G122A,-1.25
7,C40A U96G,-1.47
8,C40G C114G,-4.17
9,C40G C115U,-2.07
10,A37U C72U U96A,-0.172
11,G39U C40G U106A U109A G120C,-5.48
12,A37U A50U G52A,-2.94
13,G39A G44A C62G U78C,-6.69
14,C40G A91C C98U,-5.6
15,U38G G52U,-2.27
16,G39A G51U A83G A95C,-3.53
17,A37G G44C,-0.927
18,A37G G60U C80A,-5.24
19,A37U C64U C88U C102A,-2.71
20,G39A G48A C73A A100C G120A,-0.862
21,G39U G71U,-1.16

row,Variant,polymerase ribozyme fitness (log ratio)
1,A37U A90C U96A,-0.653
2,G39U G60C,-0.892
3,U38G C56U U81A U131C,-2.23
4,A37U G52A C56A G110C A118U,-5.47
5,C40G C62U C72A A83G,-3.49
6,G39U U92A G110U U132A,-5.12
7,A37U G61U G120C,0.718
8,U38A G61U,-0.881
9,U38C G44U A111G U133G,-1.11
10,C40G C53U,-0.175
11,G39U G93A C123A,-1.36
12,C40G A41U G45A A91U,-4.47
13,G39U U78C U96A,-4.33
14,C40G G63A U92G,-3.61
15,C40A C56A C73U A84C,-2.23
16,C40A A43U,-2.77
17,A37G C104G,-6.69
18,A37U G44C C53G U55C G61A C89U G117C,-4.88
19,A37U G77C,-1.31
20,G39U G45U C73G,-2.79
21,A37U A50C G63U C79A C80G G107U G117C,-6.62
